We go through two molecules from paper PMC6400189, “A three-domain copper-nitrite reductase with a unique sensing loop” (IUCrJ, 2019).

Data set [1] concerns the target Copper-containing nitrite reductase (NirK) from Thermus scotoductus SA-01 (Thermus scotoductus SA-01). As to the kind of experiment: SEC; Superdex 200 10/300 column, 150 mM Tris-HCl pH 7.6, 0.5 ml/min, calibrated with mass markers; subunit mass by SDS-PAGE. On the technique in general: SEC sorts molecules by how far they enter the pores of the column.
The target is the same in data set [2]. As to the kind of experiment: crystal structure; twinned H3 crystals with one protomer in the asymmetric unit; trimer by the crystallographic threefold axis; data not shown.
Data set [3] has the same target. In words: crystal structure; C121 crystal with the whole homotrimer in the asymmetric unit, 1.63 Å; 0.2 M CaCl2, 0.1 M HEPES sodium pH 7.5, 28% PEG 400, 16°C.
Substrate in data set [4]: O=NO
As to the kind of experiment: nitrite reductase kinetics, methyl viologen standard assay. The format is biochemical, Thermus scotoductus. Particulars: methyl viologen (dithionite-reduced) as artificial electron donor per standard NirK assay; apparent constant.

On to “Copper-containing nitrite reductase (NirK) from Thermus scotoductus SA-01 (enzyme)”, for which the stoichiometry N in data set [1], in data set [2] and in data set [3] was 3 throughout.

B1: TsNirK (Thermus scotoductus SA-01) (protein)
chain: AERHFTLEARSSIFEVDQGVYLRGFSFNDMSPGPMLVVEEGDTVHITLRNLDNVTHGLSIHAANTQTSRFLGNVQPGETREFSFTADFPGVFMYHCAPGGHGIMAHTMGGQFGMIVVEPKEKYRMERELGRGPDLKLYIIQSEAYASGRDFYDGKALYVMFNGRNFRYVDEPIPVRPGDYLRIYFLNVGPNLTSTLHVVGGIFEYMYYQGNPKNLVVGAQTALAGPSDSWVIEWRVPPVEGDYTLVTHVFGTAIKGALGILRAKKDAPRIPEVRAEGVPGVKEIPASAKRVVDPYGLASPGHEHTVRVPLDPALAQPVAVGAKALEPLPVTVQMVGNSFYPKVLEIPVGTTVEFVNEDVFDLLEGERTGRHDAVVIDVQGPEPFVTPKLGHGERYRITFTKPGEYVYICSIHPYMKGIIRVYEPLSQRADSQ
notes: codon-optimised gene in pET-22b(+), E. coli BL21(DE3); 451-residue subunits (~50 kDa), homotrimer, three Cu per subunit; domains Ala20-Glu137, Leu154-Ala282, Arg309-Leu444
Turning to B1, in data set [4], the Km (as a rule, the concentration of substrate that gives half-maximal velocity) was 27 ± 2 µM; the kcat (usually the number of substrate molecules converted per active site and unit of time at saturation) stood at 65 ± 1 s⁻¹.
